This test concerns the target all other cases (NTSR1 nanodisc preparations other than WT in 100% POPC nanodiscs). Description: radioligand binding.

Substance “[3H]NTS ([3,11-tyrosyl-3,5-3H(N)]-neurotensin) (peptide)” registered a Kd of 500 pM.

(Values after paper PMC4512254.)
